Experimental data reported in publication PMC13031973 (Nature Communications, 2026).

B1: MIDN(337-432) (domain or fragment)
chain: SPASPAPDLAPRTTSCEKLTAAPSASLLQGQSQIRMCKPPGDRLRQTENRATRCKVERLQLLLQQKRLRRKARRDARGPYHWSPSRKAGRSDSSSS
B2: MIDN(337-468) (domain or fragment)
chain: SPASPAPDLAPRTTSCEKLTAAPSASLLQGQSQIRMCKPPGDRLRQTENRATRCKVERLQLLLQQKRLRRKARRDARGPYHWSPSRKAGRSDSSSSGGGGSPSEASGLGLDFEDSVWKPEVNPDIKSEFVVA

Experiments:
[1] = target: T1, purified proteasome subunit RPN1 (PSMD2) (human, UniProt Q13200 1-908); experiment: ITC
T1 sequence (Q13200 whole entry): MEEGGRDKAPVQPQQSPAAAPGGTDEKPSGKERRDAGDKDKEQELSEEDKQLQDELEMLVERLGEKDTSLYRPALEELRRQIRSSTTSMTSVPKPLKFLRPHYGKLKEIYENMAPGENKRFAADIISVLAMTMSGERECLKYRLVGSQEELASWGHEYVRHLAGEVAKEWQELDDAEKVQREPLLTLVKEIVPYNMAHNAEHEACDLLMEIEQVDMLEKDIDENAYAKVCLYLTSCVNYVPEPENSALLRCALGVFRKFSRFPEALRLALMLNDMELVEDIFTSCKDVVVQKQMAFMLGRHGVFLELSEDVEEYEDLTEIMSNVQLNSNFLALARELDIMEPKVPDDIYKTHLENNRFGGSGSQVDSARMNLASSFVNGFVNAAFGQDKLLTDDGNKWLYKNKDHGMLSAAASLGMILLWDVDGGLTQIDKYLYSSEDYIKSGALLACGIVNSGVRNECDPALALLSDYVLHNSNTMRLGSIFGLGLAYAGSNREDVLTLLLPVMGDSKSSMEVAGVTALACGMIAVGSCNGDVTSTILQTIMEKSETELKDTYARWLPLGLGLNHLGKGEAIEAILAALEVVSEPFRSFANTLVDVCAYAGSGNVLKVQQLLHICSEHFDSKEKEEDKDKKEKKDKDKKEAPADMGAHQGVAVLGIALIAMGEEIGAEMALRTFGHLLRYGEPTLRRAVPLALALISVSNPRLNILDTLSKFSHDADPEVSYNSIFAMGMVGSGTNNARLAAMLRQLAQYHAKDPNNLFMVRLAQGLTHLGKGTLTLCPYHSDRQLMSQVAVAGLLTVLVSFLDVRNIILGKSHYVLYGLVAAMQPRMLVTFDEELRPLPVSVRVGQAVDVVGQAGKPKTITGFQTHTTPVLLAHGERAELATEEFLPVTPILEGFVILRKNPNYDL

[2] = target: T1, purified proteasome subunit RPN1 (PSMD2); experiment: SPR

| Binder | Kd [1] | Kd [2] |
| --- | --- | --- |
| B1 | ~146 nM | 663 nM |
| B2 | ~130 nM | 390 nM |
